According to patent US20150086555A1:

B1: TCN-532 (5262_H18) (antibody, V domains shown)
VH: QVQLQESGPGLVKPSETLSLTCTVSGGSVSSETYYWSWIRQPPGKGLEWIGYIYYIGNTDYRPSLKSRVTISLDTSKNQFSLKLSSVTAADTAVYYCARGAYYDSSGYPAFYIWGQGTMVTVSS
VL: QSVLTQPPSVSGAPGQRVTISCTGSSSNIGSDYDVHWYKQLPGTAPKLLIFGNSNRPSGVPDRFSGSKSGTSASLAITGLQAEDEADYYCQSYDSSLSGFHVFGSGTKVTVL
B2: TCN-531 (5091_H13) (antibody, V domains shown)
VH: EVQLVESGGDLVQPGRSLKLSCTGSGFTFGDYGVTWVRQAPGKGLEWVGFIRTRPWGGTADTAASVKGRFTISRDDSKSLAYLQMNSLKTEDTAVYYCCRDAPPNVEVASMTNWYFDLWGRGTLVTVSS
VL: DIQLTQSPSSLSASVGDRVTITCRASQGILNCLAWYQQKPGKVPNLLMYAASTLQSGVPSRFSGSGFGTDFTLTISSLQPEDVATYYCQTYGGVSTFGGGTKVEIR
B3: TCN-529 (5297_H01) (antibody, V domains shown)
VH: QITLRESGPTLVKPTQTLTLTCTFSGFSLSTNGVNVGWIRQPPGKALEWLALIYWDDDKRYSPSLKRRLTITKDTSKNQVVLTLTNMDPVDTATYYCAHRPDFYGDFEYWGPGTLVTVSS
VL: QSALTQPASVSGSPGQSITISCTGSSSDIGGYNYVSWYQQHPGKAPKLMIYDVNNRPSGVSNRFSGSKSGNTASLTISGLQTDDEADYYCGSYTGSPHYVFGTGTKVTVL

Assays:
Details in all cases: remark: other sources report otherwise
[1] = molecular target: T1, recombinant soluble homotrimeric HA of A/Japan/305/57 (H2N2) (Influenza A virus A/Japan/305/1957(H2N2)); assay: HA microarray, BCC supernatant
[2] = molecular target: T2, recombinant soluble homotrimeric HA of A/Netherlands/219/03 (H7N7) (Influenza A virus A/Netherlands/219/03(H7N7)); assay: HA microarray, BCC supernatant
[3] = molecular target: T3, recombinant soluble homotrimeric HA of A/Solomon Islands/3/06 (H1N1) (Influenza A virus A/Solomon Islands/3/2006(H1N1)); assay: HA microarray, BCC supernatant
[4] = molecular target: T4, recombinant soluble homotrimeric HA of A/Wisconsin/67/05 (H3N2) (Influenza A virus A/Wisconsin/67/2005(H3N2)); assay: HA microarray, BCC supernatant
[5] = molecular target: T5, recombinant soluble homotrimeric HA of A/chicken/Vietnam/NCVD-016/08 (H5N1) (Influenza A virus A/chicken/Vietnam/NCVD-016/2008(H5N1)); assay: HA microarray, BCC supernatant
[6] = molecular target: T6, recombinant soluble homotrimeric HA of A/duck/Yangzhou/02/05 (H8N4) (Influenza A virus A/duck/Yangzhou/02/2005(H8N4)); assay: HA microarray, BCC supernatant
[7] = molecular target: T7, recombinant soluble homotrimeric HA of A/northern shoveler/California/HKWF115/07 (H6) (Influenza A virus A/northern shoveler/California/HKWF115/2007(H6N1)); assay: HA microarray, BCC supernatant
[8] = molecular target: T8, recombinant soluble homotrimeric HA of A/swine/Ontario/01911-2/99 (H4N6) (Influenza A virus A/Swine/Ontario/01911-2/99 (H4N6)); assay: HA microarray, BCC supernatant
[9] = molecular target: recombinant homotrimeric HA A/Japan/305/57 H2N2 (Influenza A virus A/Japan/305/1957(H2N2)); assay: protein microarray, purified IgG, trimeric HA
[10] = molecular target: recombinant homotrimeric HA A/Netherlands/219/03 H7N7 (Influenza A virus A/Netherlands/219/03(H7N7)); assay: protein microarray, purified IgG, trimeric HA
[11] = molecular target: recombinant homotrimeric HA A/Solomon Islands/3/06 H1N1 (Influenza A virus A/Solomon Islands/3/2006(H1N1)); assay: protein microarray, purified IgG, trimeric HA
[12] = molecular target: recombinant homotrimeric HA A/South Carolina/1/18 H1N1 (Influenza A virus A/South Carolina/1/18 (H1N1)); assay: protein microarray, purified IgG, trimeric HA
[13] = molecular target: recombinant homotrimeric HA A/Wisconsin/67/05 H3N2 (Influenza A virus A/Wisconsin/67/2005(H3N2)); assay: protein microarray, purified IgG, trimeric HA
[14] = molecular target: recombinant homotrimeric HA A/chicken/Vietnam/NCVD-016/08 H5N1 (Influenza A virus A/chicken/Vietnam/NCVD-016/2008(H5N1)); assay: protein microarray, purified IgG, trimeric HA
[15] = molecular target: recombinant homotrimeric HA A/duck/Yangzhou/02/05 H8N4 (Influenza A virus A/duck/Yangzhou/02/2005(H8N4)); assay: protein microarray, purified IgG, trimeric HA
[16] = molecular target: recombinant homotrimeric HA A/northern shoveler/California/HKWF115/07 H6N4 (Influenza A virus A/northern shoveler/California/HKWF115/2007(H6N1)); assay: protein microarray, purified IgG, trimeric HA
[17] = molecular target: recombinant homotrimeric HA A/swine/Ontario/01911-2/99 H4N6 (Influenza A virus A/Swine/Ontario/01911-2/99 (H4N6)); assay: protein microarray, purified IgG, trimeric HA
[18] = molecular target: recombinant soluble homotrimeric HA of A/California/4/09 (H1N1) (Influenza A virus A/California/04/2009(H1N1)); assay: trimeric HA microarray, transfection supernatant set 3
[19] = molecular target: recombinant soluble homotrimeric HA of A/Hong Kong/1073/99 (H9N2) (Influenza A virus A/Hong Kong/1073/99 (H9N2)); assay: as above
[20] = molecular target: T1, recombinant soluble homotrimeric HA of …; assay: as above
[21] = molecular target: T2, recombinant soluble homotrimeric HA of …; assay: as above
[22] = molecular target: T3, recombinant soluble homotrimeric HA of …; assay: as above
[23] = molecular target: recombinant soluble homotrimeric HA of A/South Carolina/1/18 (H1N1) (Influenza A virus A/South Carolina/1/18 (H1N1)); assay: as above
[24] = molecular target: T4, recombinant soluble homotrimeric HA of …; assay: as above
[25] = molecular target: T5, recombinant soluble homotrimeric HA of …; assay: as above
[26] = molecular target: T6, recombinant soluble homotrimeric HA of …; assay: as above
[27] = molecular target: T7, recombinant soluble homotrimeric HA of …; assay: as above
[28] = molecular target: T8, recombinant soluble homotrimeric HA of …; assay: as above
[29] = molecular target: T9, recombinant soluble homotrimeric HA of A/Anhui/1/05 (H5N1) (Influenza A virus A/Anhui/1/2005(H5N1)); assay: HA microarray, BCC supernatant
[30] = molecular target: recombinant homotrimeric HA A/Anhui/1/05 H5N1 (Influenza A virus A/Anhui/1/2005(H5N1)); assay: protein microarray, purified IgG, trimeric HA
[31] = molecular target: recombinant homotrimeric HA A/Egypt/3300-NAMRU3/08 H5N1 (Influenza A virus A/Egypt/3300-NAMRU3/2008(H5N1)); assay: protein microarray, purified IgG, trimeric HA
[32] = molecular target: recombinant homotrimeric HA A/Hong Kong/156/97 H5N1 (Influenza A virus A/Hong Kong/156/97 (H5N1)); assay: protein microarray, purified IgG, trimeric HA
[33] = molecular target: recombinant homotrimeric HA A/Indonesia/5/05 H5N1 (Influenza A virus A/Indonesia/5/2005(H5N1)); assay: protein microarray, purified IgG, trimeric HA
[34] = molecular target: recombinant homotrimeric HA A/Vietnam/1203/04 H5N1 (Influenza A virus A/VietNam/1203/2004(H5N1)); assay: protein microarray, purified IgG, trimeric HA
[35] = molecular target: T9, recombinant soluble homotrimeric HA of …; assay: trimeric HA microarray, transfection supernatant set 3
[36] = molecular target: recombinant soluble homotrimeric HA of A/Egypt/3300-NAMRU3/08 (H5N1) (Influenza A virus A/Egypt/3300-NAMRU3/2008(H5N1)); assay: as above
[37] = molecular target: recombinant soluble homotrimeric HA of A/Hong Kong/2108/03 (H9N2) (Influenza A virus A/HK/2108/2003(H9N2)); assay: as above
[38] = molecular target: recombinant soluble homotrimeric HA of A/Indonesia/5/05 (H5N1) (Influenza A virus A/Indonesia/5/2005(H5N1)); assay: as above
[39] = molecular target: recombinant homotrimeric HA A/California/4/09 H1N1 (Influenza A virus A/California/04/2009(H1N1)); assay: protein microarray, purified IgG, trimeric HA

Binder	Trimeric HA Binding: RLU [1] [RLU]	Trimeric HA Binding: RLU [2] [RLU]	Trimeric HA Binding: RLU [4] [RLU]	Trimeric HA Binding: RLU [5] [RLU]	Trimeric HA Binding: RLU [6] [RLU]	Trimeric HA Binding: RLU [7] [RLU]	Trimeric HA Binding: RLU [9] [RLU]	Trimeric HA Binding: RLU [10] [RLU]	Trimeric HA Binding: RLU [11] [RLU]	Trimeric HA Binding: RLU [12] [RLU]	Trimeric HA Binding: RLU [13] [RLU]	Trimeric HA Binding: RLU [14] [RLU]	Trimeric HA Binding: RLU [15] [RLU]	Trimeric HA Binding: RLU [16] [RLU]	Trimeric HA Binding: RLU [17] [RLU]	Trimeric HA Binding: RLU [18] [RLU]	Trimeric HA Binding: RLU [20] [RLU]	Trimeric HA Binding: RLU [23] [RLU]	Trimeric HA Binding: RLU [24] [RLU]	Trimeric HA Binding: RLU [26] [RLU]	other results
B1	176	327	18000	46	785	511	764	129	571	149	25200	487	176	117	122	23600	441	311	9970	57	Trimeric HA Binding: RLU [3]: 327 RLU; Trimeric HA Binding: RLU [8]: 119 RLU; Trimeric HA Binding: RLU [19]: 48 RLU; Trimeric HA Binding: RLU [21]: 42 RLU; Trimeric HA Binding: RLU [22]: 59 RLU; Trimeric HA Binding: RLU [25]: 29 RLU; Trimeric HA Binding: RLU [27]: 78 RLU; Trimeric HA Binding: RLU [28]: 29 RLU
B2	–	–	7090	–	3120	43900	441	170	–	56	20600	124	112	45	84	2830	–	1560	4160	3220	Trimeric HA Binding: RLU [29]: 3610 RLU; Trimeric HA Binding: RLU [30]: 4960 RLU; Trimeric HA Binding: RLU [31]: 2810 RLU; Trimeric HA Binding: RLU [32]: 259 RLU; Trimeric HA Binding: RLU [33]: 84 RLU; Trimeric HA Binding: RLU [34]: 488 RLU; Trimeric HA Binding: RLU [35]: 76 RLU; Trimeric HA Binding: RLU [36]: 363 RLU; Trimeric HA Binding: RLU [37]: 158 RLU; Trimeric HA Binding: RLU [38]: 54 RLU; Trimeric HA Binding: RLU [21]: 384 RLU
B3	435	1160	51600	410	–	533	1560	1310	2820	243	25600	681	737	–	–	735	45	158	2940	48	Trimeric HA Binding: RLU [39]: 977 RLU; Trimeric HA Binding: RLU [25]: 33 RLU; Trimeric HA Binding: RLU [28]: 45 RLU
